This note sets out measurements from US20100074886A1, “CCR2 ANTAGONISTS FOR TREATMENT OF FIBROSIS” (priority 2006, published 2010).

The target in this test is Human MCP-1 (CCL2), monocyte chemoattractant protein 1 (human), P13500. Kind of test: cell-based or functional assay.

Bounds are passed on as bounds.

Sequence of Human MCP-1 (CCL2), monocyte chemoattractant protein 1 (human), P13500 (P13500 24-99): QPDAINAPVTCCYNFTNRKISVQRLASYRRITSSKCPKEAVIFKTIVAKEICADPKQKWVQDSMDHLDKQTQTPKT

B1: CCL2-neutralizing antibody CNTO888 (antibody, V domains shown)
VH: QVQLVQSGAEVKKPGSSVKVSCKASGGTFSSYGISWVRQAPGQGLEWMGGIIPIFGTANYAQKFQGRVTITADESTSTAYMELSSLRSEDTAVYYCARYDGIYGELDFWGQGTLVTVSS
VL: not shown
modifications: not checked
For B1, the CCL2 gene expression in fibrotic cell line 126, percent of untreated cell level (percent of untreated cell level) came to 2; the CXCL5 gene expression in fibrotic cell line 126, percent of untreated cell level (percent of untreated cell level) was below 1; the CXCL5 protein level in supernatant of fibrotic cell line 126 with Anti-CCL2 worked out at 32; the CXCL5 protein, percent of untreated (percent of untreated) was below 1. This molecule yielded a G-CSF protein level in supernatant of fibrotic cell line 126 with Anti-CCL2 of 1; a G-CSF protein, percent of untreated (percent of untreated) below 1; an IL6 gene expression in fibrotic cell line 126, percent of untreated cell level (percent of untreated cell level) below 1; an IL6 protein level in supernatant of fibrotic cell line 126 with Anti-CCL2 of 40. This molecule also displayed an IL6 protein, percent of untreated (percent of untreated) below 1; an IL8 protein level in supernatant of fibrotic cell line 126 with Anti-CCL2 of 308; an IL8 protein, percent of untreated (percent of untreated) of 2; an IL13Ra2 gene expression in fibrotic cell line 126, percent of untreated cell level (percent of untreated cell level) of 5. Moreover, the VEGF protein level in supernatant of fibrotic cell line 126 with Anti-CCL2 is 175; the VEGF protein, percent of untreated (percent of untreated) was 23; the fold reduction of G-CSF protein with CNTO 888 came to 6800 fold; the fold reduction of VEGF protein with CNTO 888 was determined as 4 fold.
